T1: Human neutrophil elastase (Elastin Products Company, Inc.) (human, UniProt P08246 30-247, limits assumed)
T1 sequence (looked up): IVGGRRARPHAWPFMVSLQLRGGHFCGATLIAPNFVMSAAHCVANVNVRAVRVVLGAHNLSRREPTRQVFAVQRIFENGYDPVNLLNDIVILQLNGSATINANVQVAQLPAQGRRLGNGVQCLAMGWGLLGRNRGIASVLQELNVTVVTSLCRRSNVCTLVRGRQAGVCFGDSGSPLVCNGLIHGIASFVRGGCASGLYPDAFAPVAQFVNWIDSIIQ


Key:
[1] = target: T1, Human neutrophil elastase (Elastin …); assay: elastase inhibition assay with fluorogenic substrate MeOSuc-AAPV-AMC (Example 28); y axis read as residual activity
CXCR4 = CXCR4 (human, UniProt P61073 1-352); assay: cell-based or functional assay
CXCR4, sequence (P61073 whole entry): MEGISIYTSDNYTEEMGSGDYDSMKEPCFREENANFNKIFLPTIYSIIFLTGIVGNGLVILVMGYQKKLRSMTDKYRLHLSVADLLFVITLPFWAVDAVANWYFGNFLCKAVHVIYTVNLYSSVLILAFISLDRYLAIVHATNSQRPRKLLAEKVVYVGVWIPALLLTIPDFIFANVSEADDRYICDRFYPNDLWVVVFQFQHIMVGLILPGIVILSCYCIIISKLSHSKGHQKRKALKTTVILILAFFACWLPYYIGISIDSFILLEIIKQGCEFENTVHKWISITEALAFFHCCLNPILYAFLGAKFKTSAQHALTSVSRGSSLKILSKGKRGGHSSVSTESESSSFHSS

[2] = target: T2, SNAP-tag-CXCR4 (Tag-lite labeled CXCR4 cells, Cisbio Bioassays) (UniProt P61073 1-352, Tag-lite label on the SNAP-tag); assay: Tag-lite HTRF competition with 50 nM fluorescent SDF-1, Cheng-Prusoff
T2 construct: whole, on cells; Bought labelled cells; also called Tag-lite CXCR4 receptor; labeled SNAP-tag-CXCR4; not shown: SNAP-tag of the bought Tag-lite cells
T2 sequence (P61073 whole entry): as above
Procedure: (§1) Briefly, 10⁶ Tag-lite labeled CXCR4 cells were thawed at 37° C., centrifuged for 5 min at 1200 g, and re-suspended in 2.7 ml 1×Tag-lite buffer after removal of supernatant.

[3] = target: T2, SNAP-tag-CXCR4 (Tag-lite labeled CXCR4 …); assay: Tag-lite HTRF competition with 50 nM fluorescent SDF-1 on Tag-lite labeled CXCR4 cells
Procedure: as §1

Row | binding result [1] | IC50 (read off the curve) [1] | inhibition of SDF-1 induced migration of Ramos cells, EC50 (CXCR4) | Ki [2] | IC50 [3] | Binder
1 | binds | – | – | – | – | Human BVK-beta HEI HC 6 (Fab, V domains shown, also called HEI fusion protein) VH: QVQLQESGPGLVRPSQTLSLTCTVSGFSLTGYGVNWVRQPPGRGLEWIGMIWGDGNTDYNSALKSRVTMLKDTSKNQFSLRLSSVTAADTAVYYCTSVHQEMCTASIPPQCYEWHVDVWGQGLLVTVSS VL: DIQMTQSPSSLSASVGDRVTITCRASGNIHNYLAWYQQKPGKAPKLLIYYTTTLADGVPSRFSGSGSGTDYTFTISSLQPEDIATYYCQHFWSTPRTFGQGTKVEIKR
2 | binds | – | – | – | – | Human BVK-beta HEI HC 8 (Fab, V domains shown, also called HEI fusion protein) VH: QVQLQESGPGLVRPSQTLSLTCTVSGFSLTGYGVNWVRQPPGRGLEWIGMIWGDGNTDYNSALKSRVTMLKDTSKNQFSLRLSSVTAADTAVYYCTSVHQETKMCTASIPPQCYNYEWHVDVWGQGLLVTVSS VL: DIQMTQSPSSLSASVGDRVTITCRASGNIHNYLAWYQQKPGKAPKLLIYYTTTLADGVPSRFSGSGSGTDYTFTISSLQPEDIATYYCQHFWSTPRTFGQGTKVEIKR
3 | – | ~40 nM | – | – | – | Human BVK-beta HEI HC 9 (Fab, V domains shown, also called HEI fusion protein) VH: QVQLQESGPGLVRPSQTLSLTCTVSGFSLTGYGVNWVRQPPGRGLEWIGMIWGDGNTDYNSALKSRVTMLKDTSKNQFSLRLSSVTAADTAVYYCTSVHQETKKMCTASIPPQCYYNYEWHVDVWGQGLLVTVSS VL: DIQMTQSPSSLSASVGDRVTITCRASGNIHNYLAWYQQKPGKAPKLLIYYTTTLADGVPSRFSGSGSGTDYTFTISSLQPEDIATYYCQHFWSTPRTFGQGTKVEIKR
4 | – | – | 3.2 nM | 0.92 nM | 4.16 nM | BLV1H12-beta BCCX2 HC 4 IgG (antibody, V domains shown, Peptide grafted into CDRH2; also called bAb-AC4; BVL1H12-beta BCCX2 HC 4) VH: ASGFSLSDKAVGWVRQAPGKALEWLGSIDETKKYQSYRKCRGGRRWCYQKSYTYNYETGYNPGLKSRLSITKDNSKSQVSLSVSSVTTEDSATYYCTSVHQGGGGSWHVDVWGQGLLVTVSS VL: QAVLNQPSSVSGSLGQRVSITCSGSSSNVGNGYVSWYQLIPGSAPRTLIYGDTSRASGVPDRFSGSRSGNTATLTISSLQAEDEADYFCASAEDSSSNAVFGSGTTLTVLG
5 | – | – | – | 5.39 nM | 24.4 nM | BLV1H12-beta BCCX2 HC 2 IgG (antibody, V domains shown, Bovine-human chimera with human IgG1 Fc; also called bAb-AC2) VH: QVQLRESGPSLVKPSQTLSLTCTASGFSLSDKAVGWVRQAPGKALEWLGSIDTGGNTGYNPGLKSRLSITKDNSKSQVSLSVSSVTTEDSATYYCTSVHQETKKYQSYRKCRGPRRWCYQKSYTYNYEWHVDVWGQGLLVTVSS VL: QAVLNQPSSVSGSLGQRVSITCSGSSSNVGNGYVSWYQLIPGSAPRTLIYGDTSRASGVPDRFSGSRSGNTATLTISSLQAEDEADYFCASAEDSSSNAVFGSGTTLTVLG
6 | – | – | – | 19.8 nM | 89.3 nM | BLV1H12-beta BCCX2 HC 3 IgG (antibody, V domains shown, Bovine-human chimera with human IgG1 Fc; also called bAb-AC3) VH: QVQLRESGPSLVKPSQTLSLTCTASGFSLSDKAVGWVRQAPGKALEWLGSIDTGGNTGYNPGLKSRLSITKDNSKSQVSLSVSSVTTEDSATYYCTSVHQETKKYQSYRKCRGGNGRRWCYQKSYTYNYEWHVDVWGQGLLVTVSS VL: QAVLNQPSSVSGSLGQRVSITCSGSSSNVGNGYVSWYQLIPGSAPRTLIYGDTSRASGVPDRFSGSRSGNTATLTISSLQAEDEADYFCASAEDSSSNAVFGSGTTLTVLG
7 | – | – | – | 25.1 nM | 113 nM | trastuzumab-beta BCCX2 HC medium (antibody, human IgG1, kappa, V domains shown, also called HMCX) VH: EVQLVESGGGLVQPGGSLRLSCAASGFNIKDTYIHWVRQAPGKGLEWVARIYPTNGYTRYADSVKGRFTISADTSKNTAYLQMNSLRAEDTAVYYCSRETKKYRKCRGGRRWCYQKYNYEDYWGQGTLVTVSS VL: not shown
8 | – | – | – | 2.07 nM | 9.36 nM | trastuzumab-beta BCCX2 HC long (antibody, human IgG1, kappa, V domains shown, also called HLCX) VH: EVQLVESGGGLVQPGGSLRLSCAASGFNIKDTYIHWVRQAPGKGLEWVARIYPTNGYTRYADSVKGRFTISADTSKNTAYLQMNSLRAEDTAVYYCSRETKKYQSYRKCRGGRRWCYQKSYTYNYEDYWGQGTLVTVSS VL: not shown

Reference: patent publication US20160237156A1 (CALIFORNIA INSTITUTE FOR BIOMEDICAL RESEARCH, published 2016)
